This note sets out measurements from patent US6191256A, “Recombinant factor VIII binding peptides” (Bayer Corporation, priority 1998, dated 2001).

The target in assay [1] is T1, rFVIII (Homo sapiens, UniProt P00451). In words: confirmatory binding assay in filtration plate format using 14C-rFVIII. Conditions: Table 3; for Total dpm / beads % total / beads dpm: 14C-rFVIII 20 nM; for 0.5M CaCl2 % total / 2% acetic acid % total / 2% acetic acid dpm / 0.5M CaCl2 dpm: 14C-rFVIII 20 nM in PPF, 5 mg beads; for 0.5M CaCl2 dpm: 3.0 × 10^15 DPM/mole, 5° C.; for beads % total / beads dpm: remaining on beads after washes. The procedure:
Confirmatory binding assays were performed in a filtration plate format using individual peptide sequences synthesized directly onto the TOYOPEARL AF amino 650 M resin, at a final substitution density of 0.1 mmole/g resin. A slurry of each individual peptide sequence was prepared using deionized water. A 100 μL volume of beads (corresponding to 5 mg) was loaded into each well of the filtration plate (MULTISCREEN Assay System, Millipore, Bedford, Mass.), in triplicate for each peptide sequence. Beads were washed with 20% ethanol and incubated overnight with equilibration buffer (20 mM imidazole, 10 mM
CaCl2, 0.105 M NaCl, pH 6.9). A 100 μL aliquot of ^14 C-rFVIII diluted in neat PPF to a final concentration of 20-30 nM was loaded into each well and incubated for 1 hour at 5° C. Filtrate (unbound ^14 C-rFVIII) was collected into a microtiter plate and transferred to liquid scintillation vials for dpm counting. Beads were washed sequentially with: 100 μL of equilibration buffer for 15 minutes, 200 μL of 0.5 M CaCl2 (in equilibration buffer), 200 μL of 1.0 M CaCl2 (in equilibration buffer), and 200 uL of 2% by volume glacial acetic acid in water, for 1 hour each at 5° C. Scintillation counting on the unbound ^14 C-rFVIII (plus equilibration buffer wash), salt and acid washes, as well as on the beads was then performed and the overall mass balance calculated.
Beads presenting the appropriate peptide sequence on the surface were placed in the filtration plate wells and incubated sequentially with equilibration buffer, ^14 C-rFVIII in PPF, equilibration buffer, 0.5 M CaCl2 wash, 1.0 M CaCl2 wash and 2% acetic acid wash. After each incubation, filtrate was collected in microtiter plates, and dpm counted on each
In Table 3, the ^14 C-rFVIII was loaded at 20 nM (in PPF) and the radiolabeling yield was at 3.0×10^15 dpm/mole. In Table 4, the ^14 C-rFVIII was loaded at 30 nM (in PPF) and the radiolabeling yield was at 5.0×10^15 dpm/mole.

Assay [2] addresses T1, rFVIII. In words: column format binding assay, rFVIII mass per fraction by sandwich capture ELISA for the light chain. Conditions: for 0.5M CaCl2 ng / 0.5M CaCl2 % total / 2% acetic acid % total / 2% acetic acid ng / Flow through % total / Total ng / Flow through ng: Table 5; for Flow through ng: 10,000 ng rFVIII in 1:10 PPF injected, 5° C. The method, then: Immunoassay on rFVIII using a sandwich capture ELISA for the light chain and activity assay using a chromogenic substrate (COATEST Factor VIII kit from diaPharma, Franklin, Ohio) were performed on a BIOMEK® automated liquid handling system from Beckman Instruments (Brea, Calif.). The monoclonal antibody for rFVIII light chain (known as C7F7), the ELISA assay standard (lot A70K019), and the control for the activity assay (lot A70A001 @ 140 IU/mL) were from the Bayer Corporation (Berkeley, Calif.). The standard for the activity assay was at 11.2 IU/mL (Bayer, Clayton, N.C.), calibrated against the MEGA 1 standard, which is a working standard used by American manufacturers for measuring factor VIII activity (21).
Additional confirmatory binding assay and performance of the discovered binding peptides in terms of total rFVIII and activity recovery was performed in a column chromatographic format on a microbore HPLC. The resins were packed into 0.4×5 cm columns (Thomson, Springfield, Va.) and tested on the MICHROM HPLC system (Michrom BioResources, Auburn, Calif.). The elution program for the trials utilized the following method. The column was pre-equilibrated with equilibration buffer (as above). A 1 mL aliquot of 1:10 PPF followed by 1 mL of rFVIII (10,000 ng) in 1:10 PPF were injected and allowed sufficient time to flow through the column using equilibration buffer. The column was then washed with step elutions of 0.5 M and 1.0 M CaCl2 in equilibration buffer. The column was exposed to equilibration buffer. Remaining protein was eluted with 2% by volume glacial acetic acid in water. Columns were kept at 5° C. during the chromatographic runs. For each 1 mL injection (equilibration buffer, 1:10 PPF and 10,000 ng rFVIII in 1:10 PPF), the chromatographic cycle was run for 45 minutes (injection, flow through, 0.5 M CaCl2, 1.0 M CaCl2, equilibration buffer, 2% acetic acid, equilibration buffer).
A Gilson FC204 fraction collector at the HPLC outlet collected individual eluates for further analysis. Each collection tube had 100 μL hSA added to it to stabilize the rFVIII. Fractions collected from the 2% acetic acid eluates were neutralized with 2 M Tris, pH 10.5 to bring the pH to neutrality. The fractions were analyzed for total protein by the integration of the absorbance at 280 nm, for rFVIII by immunoassay (sandwich capture ELISA), and for rFVIII activity by a chromogenic substrate assay.
Tables 5 and 6 present the results from the additional confirmatory binding assays using the column format. The chromatography method was run by injecting the samples at a flow rate of 865 μL/min (413 cm/hr). In order to provide a 10 minute residence time of sample in the column the flow was decreased to 17 μL/min (10 cm/hr) upon injection.
Following the incubation, the flow was set at 865 μL/min (413 cm/hr) for the step clutions of 0.5 M CaCl2, 1.0 M CaCl2, and 2% acetic acid. Results are expressed in terms of the total mass of rFVIII in each fraction, as determined by the sandwich capture ELISA assay for the rFVIII light chain. […] A control using a non-binding peptide sequence (IGF) is also shown for comparison--in this case, 95% of the rFVIII loaded to the column was collected in the flow through fraction. Additional controls with no

T1 sequence (P00451 20-2351): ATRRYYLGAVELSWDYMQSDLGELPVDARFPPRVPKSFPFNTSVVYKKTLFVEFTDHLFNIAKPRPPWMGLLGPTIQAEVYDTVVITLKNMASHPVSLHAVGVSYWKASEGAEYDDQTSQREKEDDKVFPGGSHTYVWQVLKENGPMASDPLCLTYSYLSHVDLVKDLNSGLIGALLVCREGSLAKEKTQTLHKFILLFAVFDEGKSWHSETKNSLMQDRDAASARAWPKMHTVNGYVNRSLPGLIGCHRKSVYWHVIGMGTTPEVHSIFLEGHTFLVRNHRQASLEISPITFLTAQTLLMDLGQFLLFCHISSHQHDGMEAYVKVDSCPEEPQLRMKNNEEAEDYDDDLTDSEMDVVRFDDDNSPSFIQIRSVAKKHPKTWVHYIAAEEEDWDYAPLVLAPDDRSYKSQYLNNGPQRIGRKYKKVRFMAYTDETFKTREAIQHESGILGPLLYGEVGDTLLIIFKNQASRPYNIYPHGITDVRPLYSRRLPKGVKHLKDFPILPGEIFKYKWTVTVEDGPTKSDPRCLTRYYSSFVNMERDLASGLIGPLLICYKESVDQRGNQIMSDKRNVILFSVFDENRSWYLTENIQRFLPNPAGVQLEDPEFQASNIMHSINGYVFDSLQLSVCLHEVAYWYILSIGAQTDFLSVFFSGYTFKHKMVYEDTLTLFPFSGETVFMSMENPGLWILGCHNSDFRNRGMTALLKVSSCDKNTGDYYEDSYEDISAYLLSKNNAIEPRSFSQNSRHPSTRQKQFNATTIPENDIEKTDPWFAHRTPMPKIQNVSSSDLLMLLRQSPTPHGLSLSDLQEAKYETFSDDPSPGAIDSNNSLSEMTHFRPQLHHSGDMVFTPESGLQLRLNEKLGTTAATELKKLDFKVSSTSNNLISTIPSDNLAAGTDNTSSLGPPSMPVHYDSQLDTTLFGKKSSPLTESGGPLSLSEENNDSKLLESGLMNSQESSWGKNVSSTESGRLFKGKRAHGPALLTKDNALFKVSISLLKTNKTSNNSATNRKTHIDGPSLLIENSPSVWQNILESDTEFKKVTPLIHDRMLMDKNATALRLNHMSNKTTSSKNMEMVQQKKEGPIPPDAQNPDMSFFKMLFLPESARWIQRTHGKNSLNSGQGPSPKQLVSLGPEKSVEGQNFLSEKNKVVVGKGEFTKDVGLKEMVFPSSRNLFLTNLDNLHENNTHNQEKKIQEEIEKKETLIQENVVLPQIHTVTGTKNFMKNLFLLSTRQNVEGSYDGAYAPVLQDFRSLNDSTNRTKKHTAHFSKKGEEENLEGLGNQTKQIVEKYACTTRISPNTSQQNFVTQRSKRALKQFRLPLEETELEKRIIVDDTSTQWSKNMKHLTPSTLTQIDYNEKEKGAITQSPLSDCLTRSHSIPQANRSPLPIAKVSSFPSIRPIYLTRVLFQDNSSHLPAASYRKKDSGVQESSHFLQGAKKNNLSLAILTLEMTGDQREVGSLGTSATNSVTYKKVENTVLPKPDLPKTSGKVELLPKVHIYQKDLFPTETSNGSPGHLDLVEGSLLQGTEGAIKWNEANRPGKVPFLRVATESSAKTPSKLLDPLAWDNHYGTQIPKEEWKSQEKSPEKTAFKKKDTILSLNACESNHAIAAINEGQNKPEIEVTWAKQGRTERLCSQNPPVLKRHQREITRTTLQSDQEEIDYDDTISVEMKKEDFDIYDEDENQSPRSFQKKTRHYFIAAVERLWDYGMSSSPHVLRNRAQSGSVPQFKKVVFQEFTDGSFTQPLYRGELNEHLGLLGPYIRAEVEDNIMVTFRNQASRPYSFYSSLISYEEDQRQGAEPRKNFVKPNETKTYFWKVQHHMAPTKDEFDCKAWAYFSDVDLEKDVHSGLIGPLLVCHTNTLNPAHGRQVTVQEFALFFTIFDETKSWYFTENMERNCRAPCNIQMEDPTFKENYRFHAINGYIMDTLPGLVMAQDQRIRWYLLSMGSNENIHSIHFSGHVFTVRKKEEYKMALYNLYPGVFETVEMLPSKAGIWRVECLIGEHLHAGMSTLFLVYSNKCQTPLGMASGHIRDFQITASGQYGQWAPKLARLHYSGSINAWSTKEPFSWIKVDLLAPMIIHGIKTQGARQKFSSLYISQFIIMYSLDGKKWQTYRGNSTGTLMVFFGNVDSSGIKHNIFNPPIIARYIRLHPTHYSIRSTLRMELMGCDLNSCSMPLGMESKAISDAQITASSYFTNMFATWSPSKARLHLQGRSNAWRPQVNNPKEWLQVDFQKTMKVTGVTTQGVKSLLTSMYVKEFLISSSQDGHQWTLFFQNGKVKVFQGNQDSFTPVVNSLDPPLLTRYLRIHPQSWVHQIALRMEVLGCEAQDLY
T1 sequence (P00451 1668-2351 limits assumed): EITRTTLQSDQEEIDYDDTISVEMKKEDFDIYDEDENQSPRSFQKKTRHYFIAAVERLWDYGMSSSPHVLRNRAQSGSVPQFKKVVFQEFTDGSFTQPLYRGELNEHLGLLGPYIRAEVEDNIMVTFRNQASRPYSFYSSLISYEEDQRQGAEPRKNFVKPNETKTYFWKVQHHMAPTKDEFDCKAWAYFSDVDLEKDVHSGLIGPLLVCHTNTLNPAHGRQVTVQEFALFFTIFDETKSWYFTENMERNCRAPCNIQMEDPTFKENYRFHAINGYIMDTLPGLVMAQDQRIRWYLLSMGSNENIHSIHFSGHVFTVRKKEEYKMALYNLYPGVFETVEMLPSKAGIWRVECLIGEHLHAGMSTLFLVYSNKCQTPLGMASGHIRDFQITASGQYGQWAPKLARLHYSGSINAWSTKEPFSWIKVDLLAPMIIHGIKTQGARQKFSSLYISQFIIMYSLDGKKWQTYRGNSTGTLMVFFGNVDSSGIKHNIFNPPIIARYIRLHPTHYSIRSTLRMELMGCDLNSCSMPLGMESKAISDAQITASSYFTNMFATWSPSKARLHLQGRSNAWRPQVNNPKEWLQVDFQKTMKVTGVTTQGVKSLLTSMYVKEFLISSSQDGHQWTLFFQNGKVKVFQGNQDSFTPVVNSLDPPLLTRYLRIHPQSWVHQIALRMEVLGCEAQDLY

Turning to 4 (FRPHWA) [compound 4], in the assay with rFVIII [1], the Total dpm was 3744 dpm, the “0.5M CaCl2 % total” value turned out to be 78%, the “2% acetic acid % total” value stood at 17% and the “2% acetic acid dpm” value was 631 dpm. Moreover, in the assay with rFVIII [1], the “0.5M CaCl2 dpm” value is recorded as 2905 dpm, the beads % total is listed as 6% and the beads dpm stood at 209 dpm. Also, in the assay with rFVIII [2], the “0.5M CaCl2 ng” value is given as 5510 ng, the “0.5M CaCl2 % total” value is reported as 90%, the “2% acetic acid % total” value is recorded as 3% and the “2% acetic acid ng” value came out at 160 ng. Also, in the assay with rFVIII [2], the “Flow through % total” value was 4%, the Total ng is recorded as 6123 ng and the Flow through ng was determined as 225 ng. In the assay with rFVIII [2] (Table 9, 0.5M CaCl2 fraction), the “ELISA results % total” value is recorded as 90%.
Turning to 16 (WRRHRY) [compound 16], in the assay with rFVIII [1], the Total dpm stood at 2897 dpm, the “0.5M CaCl2 % total” value is 21%, the “2% acetic acid % total” value was 45% and the “2% acetic acid dpm” value was 1302 dpm. Also, in the assay with rFVIII [1], the “0.5M CaCl2 dpm” value came out at 608 dpm, the beads % total was determined as 34% and the beads dpm amounted to 986 dpm. Also, in the assay with rFVIII [2], the “0.5M CaCl2 ng” value is recorded as 338 ng, the “0.5M CaCl2 % total” value is 9%, the “2% acetic acid % total” value was found to be 71% and the “2% acetic acid ng” value came out at 2550 ng. In the assay with rFVIII [2], the “Flow through % total” value amounted to 2%, the Total ng worked out at 3615 ng and the Flow through ng is listed as 56 ng.
Turning to 17 (FYRFWN) [compound 17], in the assay with rFVIII [1], the Total dpm is listed as 3009 dpm, the “0.5M CaCl2 % total” value turned out to be 17%, the “2% acetic acid % total” value came to 72% and the “2% acetic acid dpm” value worked out at 2156 dpm. Moreover, in the assay with rFVIII [1], the “0.5M CaCl2 dpm” value is given as 498 dpm, the beads % total was found to be 12% and the beads dpm is 355 dpm. Besides, in the assay with rFVIII [2], the “0.5M CaCl2 ng” value was found to be 1622 ng, the “0.5M CaCl2 % total” value worked out at 37%, the “2% acetic acid % total” value is on record as 54% and the “2% acetic acid ng” value is on record as 2336 ng. Also, in the assay with rFVIII [2], the “Flow through % total” value is recorded as 3%, the Total ng amounted to 4348 ng and the Flow through ng worked out at 127 ng.
For the substance 18 (WLWSHN) [compound 18], in the assay with rFVIII [1], the Total dpm is on record as 2608 dpm, the “0.5M CaCl2 % total” value came out at 25%, the “2% acetic acid % total” value was 67% and the “2% acetic acid dpm” value is reported as 1752 dpm. In addition, in the assay with rFVIII [1], the “0.5M CaCl2 dpm” value is 651 dpm, the beads % total amounted to 8% and the beads dpm worked out at 205 dpm. Further, in the assay with rFVIII [2], the “0.5M CaCl2 ng” value came out at 2362 ng, the “0.5M CaCl2 % total” value came out at 56%, the “2% acetic acid % total” value is recorded as 18% and the “2% acetic acid ng” value came out at 760 ng. Besides, in the assay with rFVIII [2], the “Flow through % total” value stood at 0%, the Total ng stood at 4200 ng and the Flow through ng is given as 8 ng.
